Data on three molecules can be found in US6482410B1, “Cytotactin derivatives that stimulate attachment and neurite outgrowth, and methods of making same” (The Scripps Research Institute, priority 1994, dated 2002).

Assay [1] has as its system dorsal root ganglia (DRG) cells. As to the kind of experiment: Cell attachment assay, DRG neurons on protein-coated solid support. The format is cell-based, chicken. As to conditions: short-term attachment assay. The procedure:
(§1) Dorsal root ganglia (DRG) cells or forebrain neurons were prepared for the cell attachment assays as follows. DRG from day 6 chicken embryos or forebrains from day 7 chicken embryos were dissected into HBSS. The tissue was pelleted by centrifugation and resuspended in CMF-HBSS and incubated at 37° C. for 10 minutes. The tissue was pelleted again and resuspended in CMF-HBSS containing 0.08% trypsin and allowed to trypsinize for 20 minutes at 37° C. An equal volume of DMEM/F12, 10% FCS, 20 ng/ml nerve growth factor (NGF) (for DRG cells only), 10 μg/ml gentamycin (10% medium) was added, and the tissue was pelleted and resuspended in 2 ml of the 10% medium. The cells were triturated with a fire-polished Pasteur pipette for 15 strokes, and the cells were washed and resuspended in 10 ml of 10% medium. DRG cells were plated in a 10 cm tissue culture dish and incubated for 1 hour at 37° C. in 5% CO2, to allow for attachment of contaminating fibroblasts.
After replating, the cells were harvested, pelleted and washed three times in DMEM/F12, 1% fetal calf serum (FCS), 20 ng/ml NGF (for DRG cells only), 10 μg/ml gentamycin (1% medium), and the number of cells determined using a hemocytometer. The DRG were resuspended to a density of 6×10^5 cells/ml in attachment buffer. […]
Chicken fibroblasts, DRG, and solid supports (dishes) coated with CT for use in the cell attachment assays were prepared as described in Examples 5.A.2-4, respectively. […] The number of bound cells was determined using a 10× objective with an eyepiece reticle. The number of cells was determined in four fields for each fusion protein dot as the number of cells bound per […]. […] The number of cells bound for CT was expressed as the average of the twelve measurements±standard deviation […]. […]
Cell attachment assays were performed essentially as follows. […] The cells were then washed in attachment buffer (CMF-HBSS, 10 mM Hepes, 1 mM CaCl2, 1 mM MgCl2, 0.1 mM MnCl2, 2% BSA) three times, counted in a hemocytometer, resuspended to a density of 6×10^5 cells/ml. […]

Assay [2] deals with dorsal root ganglia (DRG) neurons. Description: Two-dimensional neurite outgrowth assay, DRG, 15 hours. It counts as cell-based, chicken. As to conditions: 15 hours; for neurite promoting activity on DRG cells: low density; for % Sprouting / Neurite Length: Table 4, DRG; for % Sprouting: neurites greater than one cell diameter; for Neurite Length: per neurite-bearing cell; for Percent Sprouting / Neurite Length (in microns): Table 5, DRG; for Percent Sprouting: six experiments; for Neurite Length (in microns): three experiments. The protocol: as §1
After replating, the cells were harvested, pelleted and washed three times in DMEM/F12, 1% fetal calf serum (FCS), 20 ng/ml NGF (for DRG cells only), 10 μg/ml gentamycin (1% medium), and the number of cells determined using a hemocytometer. The DRG were resuspended to a density of 6×10^5 cells/ml in attachment buffer. The neurons were resuspended to a density of 2×10^4 cells/ml in 1% medium and added to substrates and placed at 37° C., 5% CO2 for 15 hours.
After the growth period, the dishes were gently rinsed with PBS to remove unbound cells, fixed with 1% glutaraldehyde, and viewed by phase contrast microscopy. Ten to forty cells were analyzed for each substrate. Cells were judged as neurite-bearing if the length of the processes was greater than one cell diameter. All cells with neurites were photographed with a 20× objective and total neurite length per neurite-bearing cell was derived from the photographic prints. Percentage of neuronal sprouting was calculated from at least six experiments. Neurite length was calculated from at least three experiments.
This extensive neurite outgrowth after 40 hours made quantitation of the percentage of neurite-bearing cells and neurite length difficult. To analyze quantitatively the effect of CT/TN fusion proteins on DRG neurite outgrowth, DRG cells were therefore plated at low density on CT/TN or CT/TN fragments and analyzed after 15 hours in culture for the percentage of cells that sprouted neurites greater than one cell diameter and for the everage neurite length per neuron. These conditions enhanced the number of isolated cells and discouraged the cell-cell interactions and fasciculation that occurred in the long-term cultures.
The proteins used in the neurite outgrowth assays are the same as those used in the cell attachment assays. […] In addition, poly-L-lysine was adsorbed to the solid support. […] Any cells adhering to the solid support were examined for sprouting and neurite length as defined herein.
Proteins used in the neurite outgrowth assays were prepared as described in Example 5.A.2.
Dorsal root ganglia (DRG) from day 6 chicken embryos were prepared as described in Example 5.A.4. For the neurite outgrowth assays, the DRG were resuspended at a density of 2×10^4 cells/ml in 1% medium, added to solid support, and placed at 37° C. in 5% CO2 for 15 hours. After the attachment and growth period, the dishes were gently rinsed with PBS to remove unbound cells, fixed with 1% (v/v) glutaraldehyde, and viewed by phase contrast microscopy. Ten to thirty cells were analyzed for each adsorbed protein spot. Cells were judged as neurite-bearing if the length of the processes were greater than one cell diameter. All cells with neurites were photographed with a 40× objective and the total neurite length per neurite-bearing cell was derived from the prints. The percent of cells that were sprouting and the average neurite length was derived from six and three independent experiments, respectively. […]

Values joined by “and” are separate entries in the source; they are usually repeats but may differ in a detail not shown here. Identical values can stand only once. “Also recorded” adds a separate entry of the source.

B1: CTfn6: CT:GST fusion protein, fibronectin type III repeat VI, residues 1318-1398 of SEQ ID NO 4 (protein)
chain: VVGSPKGISFSDITENSARVSWTPPRSRVDSYRVSYVPITGGTPNVVTVDGSKTRTKLVKLVPGVDYNVNIISVKGFEESE
modifications: left off: a dimerising Fc or GST
In the case of B1, in assay [1], the “DRG neuron attachment to coated substrate (words)” value (“DRG neuron attachment” for short) was “able to support DRG neuron attachment; also recorded: supports both fibroblast and neuronal cell attachment”. Further, the “DRG neuron attachment” value in assay [1] (listed as Ctfn6) was “support fibroblast and neuronal cell attachment”. In assay [2] (DRG), the “DRG neurite length versus polylysine” value is listed as “not statistically different; also recorded: statistically indistinguishable”; the “increase in number of neurite-bearing cells over polylysine” value was 82% and 57%; the “percentage of neurite-bearing DRG cells versus polylysine” value (from here on “percentage”) is “increase in neurite outgrowth over poly-L-lysine”; the “neurite promoting activity on DRG cells” value was “did show neurite promoting activity”. In addition, in assay [2], the “% Sprouting” value is given as 31 ± 2 %, the “Neurite Length” value came to 153 ± 124 microns, the “Percent Sprouting” value stood at 31 ± 2 and the “Neurite Length (in microns)” value turned out to be 154 ± 124 microns.

B2: CTfg: CT:GST fusion protein, entire fibrinogen domain, residues 1570-1810 of SEQ ID NO 4 (protein)
chain: SMRSKMIQTVFTTTGLLYPYPKDCSQALLNGEVTSGLYTIYLNGDRTQPLQVFCDMAEDGGGWIVFLRRQNGKEDFYRNWKNYVAGFGDPKDEFWIGLENLHKISSQGQYELRVDLRDRGETAYAVYDKFSVGDAKTRYRLRVDGYSGTAGDSMTYHNGRSFSTFDKDNDSAITNCALSYKGAFWYKNCHRVNLMGRYGDNNHSQGVNWFHWKGHEYSIQFAEMKLRPSSFRNLEGRRKRA
modifications: left off: a dimerising Fc or GST
Turning to B2, in assay [1], the “DRG neuron attachment” value was “able to support DRG neuron attachment; also recorded: attached well”. Further, in assay [2] (DRG), the “DRG neurite length versus polylysine” value was “not statistically different; also recorded: statistically indistinguishable”, the “percentage” value is given as “comparable” and the “neurite promoting activity on DRG cells” value was “did show neurite promoting activity”. Further, in assay [2], the “% Sprouting” value came to 8 ± 3%, the “Neurite Length” value was 82 ± 23 microns, the “Percent Sprouting” value is 8 ± 3 and the “Neurite Length (in microns)” value came out at 83 ± 23 microns.

B3: CTfn3: CT:GST fusion protein, fibronectin type III repeat III, residues 774-864 of SEQ ID NO 4 (protein)
chain: LDAPSQIEAKDVTDTTALITWSKPLAEIEGIELTYGPKDVPGDRTTIDLSEDENQYSIGNLRPHTEYEYEVTLISRRGDMESDPAKEVFVT
modifications: left off: a dimerising Fc or GST
Turning to B3, in assay [2] (DRG), the “DRG neurite length versus polylysine” value was “significantly longer”, the “average neurite length relative to poly-L-lysine” value turned out to be 3 times, the “percentage” value was “comparable; also recorded: the same as on poly-L-lysine” and the “neurite promoting activity on DRG cells” value is listed as “did show neurite promoting activity”. For the same molecule, in assay [2], the “% Sprouting” value stood at 12 ± 2%, the “Neurite Length” value was 260 ± 141 microns, the “Percent Sprouting” value was determined as 12 ± 2 and the “Neurite Length (in microns)” value is 260 ± 141 microns.
